# Measured values from patent US20250320281A1.
# Tests used:
# [1] = target: HIV-1 92RW020 Env (pseudovirus) (HIV-1); assay: cell-based or functional assay
# [2] = target: HIV-1 Env of isolate MGRM-C-017 (HIV-1); assay: cell-based or functional assay
# [3] = target: HIV-1 Env of isolate MGRM-C-006 (HIV-1); assay: cell-based or functional assay
# [4] = target: HIV-1 Env of isolate MGRM-C-005 (HIV-1); assay: cell-based or functional assay
# [5] = target: HIV-1 Env of pseudovirus isolate MGRM-G-017 (HIV-1); assay: cell-based or functional assay
# [6] = target: HIV-1 MGRM-A-010 Env (pseudovirus) (HIV-1); assay: cell-based or functional assay
# [7] = target: HIV-1 CMU02 Env (pseudovirus) (HIV-1); assay: cell-based or functional assay
# [8] = target: HIV-1 Env of isolate MGRM-C-008 (HIV-1); assay: cell-based or functional assay
# [9] = target: HIV-1 Env of isolate MGRM-C-013 (HIV-1); assay: cell-based or functional assay
# [10] = target: HIV-1 Env of isolate MGRM-C-012 (HIV-1); assay: cell-based or functional assay
# [11] = target: HIV-1 Env of pseudovirus isolate MGRM-G-006 (HIV-1); assay: cell-based or functional assay
# [12] = target: HIV-1 JRCSF Env (pseudovirus) (HIV-1) (UniProt P20871); assay: cell-based or functional assay
# [13] = target: HIV-1 Env of isolate MGRM-C-024 (HIV-1); assay: cell-based or functional assay
# [14] = target: HIV-1 Env of isolate MGRM-C-022 (HIV-1); assay: cell-based or functional assay
# [15] = target: HIV-1 Env of pseudovirus isolate MGRM-G-013 (HIV-1); assay: cell-based or functional assay
# [16] = target: HIV-1 92UG005 Env (pseudovirus) (HIV-1); assay: cell-based or functional assay
# [17] = target: HIV-1 92TH021 Env (pseudovirus) (HIV-1); assay: cell-based or functional assay
# [18] = target: HIV-1 93IN905 Env (pseudovirus) (HIV-1); assay: cell-based or functional assay
# [19] = target: HIV-1 Env of isolate MGRM-C-002 (HIV-1); assay: cell-based or functional assay
# [20] = target: HIV-1 Env of isolate MGRM-C-001 (HIV-1); assay: cell-based or functional assay
# [21] = target: HIV-1 Env of pseudovirus isolate MGRM-G-004 (HIV-1); assay: cell-based or functional assay
# [22] = target: HIV-1 Env of isolate MGRM-C-019 (HIV-1); assay: cell-based or functional assay
# [23] = target: HIV-1 Env of isolate MGRM-C-004 (HIV-1); assay: cell-based or functional assay
# [24] = target: HIV-1 Env of isolate MGRM-C-009 (HIV-1); assay: cell-based or functional assay
# [25] = target: HIV-1 Env of pseudovirus isolate MGRM-G-016 (HIV-1); assay: cell-based or functional assay
# [26] = target: HIV-1 Env of pseudovirus isolate MGRM-G-027 (HIV-1); assay: cell-based or functional assay
# [27] = target: HIV-1 Env of isolate MGRM-C-015 (HIV-1); assay: cell-based or functional assay
# [28] = target: HIV-1 APV6 Env (pseudovirus) (HIV-1); assay: cell-based or functional assay
# [29] = target: HIV-1 MGRM-C-026 Env (pseudovirus) (HIV-1); assay: cell-based or functional assay
# [30] = target: HIV-1 Env of pseudovirus isolate MGRM-G-014 (HIV-1); assay: cell-based or functional assay
# [31] = target: HIV-1 MGRM-C-028 Env (pseudovirus) (HIV-1); assay: cell-based or functional assay
# [32] = target: HIV-1 MGRM-D-018 Env (pseudovirus) (HIV-1); assay: cell-based or functional assay
# [33] = target: envelope of aMLV pseudovirus (negative control); assay: cell-based or functional assay
# [34] = target: HIV-1 Env of isolate MGRM-C-023 (HIV-1); assay: cell-based or functional assay
# [35] = target: HIV-1 Env of pseudovirus isolate MGRM-G-001 (HIV-1); assay: cell-based or functional assay
# [36] = target: HIV-1 Env of isolate MGRM-C-025 (HIV-1); assay: cell-based or functional assay
# [37] = target: HIV-1 Env of isolate MGRM-C-014 (HIV-1); assay: cell-based or functional assay
# [38] = target: HIV-1 Env of isolate MGRM-C-010 (HIV-1); assay: cell-based or functional assay
# [39] = target: HIV-1 NL43 Env (pseudovirus) (HIV-1); assay: cell-based or functional assay
# [40] = target: HIV-1 MGRM-C-027 Env (pseudovirus) (HIV-1); assay: cell-based or functional assay
# [41] = target: HIV-1 Env of isolate MGRM-C-020 (HIV-1); assay: cell-based or functional assay
# [42] = target: HIV-1 Env of pseudovirus isolate MGRM-G-009 (HIV-1); assay: cell-based or functional assay
# [43] = target: HIV-1 94UG103 Env (pseudovirus) (HIV-1); assay: cell-based or functional assay
# [44] = target: HIV-1 92UG024 Env (pseudovirus) (HIV-1); assay: cell-based or functional assay
# [45] = target: HIV-1 Env of pseudovirus isolate MGRM-G-015 (HIV-1); assay: cell-based or functional assay
# [46] = target: HIV-1 Env of pseudovirus isolate MGRM-G-011 (HIV-1); assay: cell-based or functional assay
# [47] = target: HIV-1 Env of isolate MGRM-C-007 (HIV-1); assay: cell-based or functional assay
# [48] = target: HIV-1 Env of pseudovirus isolate MGRM-G-019 (HIV-1); assay: cell-based or functional assay
# [49] = target: WT JR-FL gp120 (HIV-1); assay: ELISA, antigen-coated wells
substance,measurement,setting,value
5123_A06 (PGT-125) (antibody),neutralization IC50 (pseudovirus),[1],0.0028 mg/L
same,neutralization IC50,[2],2.36 mg/L
same,neutralization IC50,[3],0.015 mg/L
same,neutralization IC50,[4],2.09 mg/L
same,"IC50 (µg/mL), pseudovirus neutralization",[5],> 50 µg/mL
same,neutralization IC50 (pseudovirus),[6],0.0055 mg/L
same,neutralization IC50 (pseudovirus),[7],> 10 mg/L
same,neutralization IC50,[8],> 50 mg/L
same,neutralization IC50,[9],> 50 mg/L
same,neutralization IC50,[10],> 50 mg/L
same,"IC50 (µg/mL), pseudovirus neutralization",[11],> 50 µg/mL
same,neutralization IC50 (pseudovirus),[12],0.006 mg/L
same,neutralization IC50,[13],> 50 mg/L
same,neutralization IC50,[14],1.23 mg/L
same,"IC50 (µg/mL), pseudovirus neutralization",[15],> 50 µg/mL
same,neutralization IC50 (pseudovirus),[16],> 10 mg/L
same,neutralization IC50 (pseudovirus),[17],0.0066 mg/L
same,neutralization IC50 (pseudovirus),[18],0.0137 mg/L
same,neutralization IC50,[19],0.008 mg/L
same,neutralization IC50,[20],> 50 mg/L
same,"IC50 (µg/mL), pseudovirus neutralization",[21],> 50 µg/mL
same,neutralization IC50,[22],0.13 mg/L
same,neutralization IC50,[23],1.82 mg/L
same,neutralization IC50,[24],> 50 mg/L
same,"IC50 (µg/mL), pseudovirus neutralization",[25],> 50 µg/mL
same,"IC50 (µg/mL), pseudovirus neutralization",[26],34.4 µg/mL
same,neutralization IC50,[27],> 50 mg/L
same,neutralization IC50 (pseudovirus),[28],0.0359 mg/L
same,neutralization IC50 (pseudovirus),[29],0.0106 mg/L
same,"IC50 (µg/mL), pseudovirus neutralization",[30],0.007 µg/mL
same,neutralization IC50 (pseudovirus),[31],5.78 mg/L
same,neutralization IC50 (pseudovirus),[32],0.0382 mg/L
same,"IC50 (µg/mL), pseudovirus neutralization",[33],> 50 µg/mL
same,neutralization IC50,[34],1.31 mg/L
same,"IC50 (µg/mL), pseudovirus neutralization",[35],0.033 µg/mL
same,neutralization IC50,[36],42.5 mg/L
same,neutralization IC50,[37],> 50 mg/L
same,neutralization IC50,[38],> 50 mg/L
same,neutralization IC50 (pseudovirus),[39],> 10 mg/L
same,neutralization IC50 (pseudovirus),[40],> 10 mg/L
same,neutralization IC50,[41],> 50 mg/L
same,"IC50 (µg/mL), pseudovirus neutralization",[42],> 50 µg/mL
same,neutralization IC50 (pseudovirus),[43],0.0124 mg/L
same,neutralization IC50 (pseudovirus),[44],> 10 mg/L
same,"IC50 (µg/mL), pseudovirus neutralization",[45],> 50 µg/mL
same,"IC50 (µg/mL), pseudovirus neutralization",[46],> 50 µg/mL
same,neutralization IC50,[47],> 50 mg/L
same,"IC50 (µg/mL), pseudovirus neutralization",[48],> 50 µg/mL
same,EC50,[49],0.2 mg/L
5141_B17 (PGT-126) (antibody),neutralization IC50 (pseudovirus),[1],0.0046 mg/L
same,neutralization IC50,[2],0.17 mg/L
same,neutralization IC50,[3],0.014 mg/L
same,neutralization IC50,[4],0.298 mg/L
same,"IC50 (µg/mL), pseudovirus neutralization",[5],> 50 µg/mL
same,neutralization IC50 (pseudovirus),[6],0.0033 mg/L
same,neutralization IC50 (pseudovirus),[7],> 10 mg/L
same,neutralization IC50,[8],2.12 mg/L
same,neutralization IC50,[9],> 50 mg/L
same,neutralization IC50,[10],0.111 mg/L
same,"IC50 (µg/mL), pseudovirus neutralization",[11],> 50 µg/mL
same,neutralization IC50 (pseudovirus),[12],0.0061 mg/L
same,neutralization IC50,[13],> 50 mg/L
same,neutralization IC50,[14],0.96 mg/L
same,"IC50 (µg/mL), pseudovirus neutralization",[15],48.8 µg/mL
same,neutralization IC50 (pseudovirus),[16],0.0181 mg/L
same,neutralization IC50 (pseudovirus),[17],0.115 mg/L
same,neutralization IC50 (pseudovirus),[18],0.0194 mg/L
same,neutralization IC50,[19],0.011 mg/L
same,neutralization IC50,[20],> 50 mg/L
same,"IC50 (µg/mL), pseudovirus neutralization",[21],> 50 µg/mL
same,neutralization IC50,[22],0.006 mg/L
same,neutralization IC50,[23],0.033 mg/L
same,neutralization IC50,[24],> 50 mg/L
same,"IC50 (µg/mL), pseudovirus neutralization",[25],> 50 µg/mL
same,"IC50 (µg/mL), pseudovirus neutralization",[26],0.875 µg/mL
same,neutralization IC50,[27],3.14 mg/L
same,neutralization IC50 (pseudovirus),[28],0.0249 mg/L
same,neutralization IC50 (pseudovirus),[29],0.0076 mg/L
same,"IC50 (µg/mL), pseudovirus neutralization",[30],0.009 µg/mL
same,neutralization IC50 (pseudovirus),[31],0.283 mg/L
same,neutralization IC50 (pseudovirus),[32],0.0093 mg/L
same,"IC50 (µg/mL), pseudovirus neutralization",[33],> 50 µg/mL
same,neutralization IC50,[34],0.065 mg/L
same,"IC50 (µg/mL), pseudovirus neutralization",[35],0.038 µg/mL
same,neutralization IC50,[36],0.786 mg/L
same,neutralization IC50,[37],> 50 mg/L
same,neutralization IC50,[38],> 50 mg/L
same,neutralization IC50 (pseudovirus),[39],> 10 mg/L
same,neutralization IC50 (pseudovirus),[40],1.14 mg/L
same,neutralization IC50,[41],> 50 mg/L
same,"IC50 (µg/mL), pseudovirus neutralization",[42],> 50 µg/mL
same,neutralization IC50 (pseudovirus),[43],0.0091 mg/L
same,neutralization IC50 (pseudovirus),[44],> 10 mg/L
same,"IC50 (µg/mL), pseudovirus neutralization",[45],> 50 µg/mL
same,"IC50 (µg/mL), pseudovirus neutralization",[46],7.32 µg/mL
same,neutralization IC50,[47],25.3 mg/L
same,"IC50 (µg/mL), pseudovirus neutralization",[48],0.018 µg/mL
same,EC50,[49],0.1 mg/L
